Measurements as given in the supplement of paper PMC9732359.
± gives the uncertainty stated by the source.

Experiment: protein stability index of a GFP-peptide fusion (yeast GPS) (PSI 1-4); higher = more stable; sorted into four equal gates, so the index is relative within each strain
In short: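 Peptides tiling yeast proteins in 17-residue segments were fused downstream of GFP, with Cherry expressed from the same plasmid. As a pooled library in yeast, mid-log cultures grown in leucine-free medium were sorted into four equal gates by GFP/Cherry fluorescence ratio. Gate plasmids were PCR-amplified and Illumina-sequenced, and barcodes linked reads to strains. Each peptide received a protein stability index equal to the sum of each gate's read frequency times its gate number.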

| Sequence | protein stability index (doa10∆) | protein stability index (pdr5∆) | protein stability index (san1∆) | protein stability index (ubr1∆) |
| --- | --- | --- | --- | --- |
| INELTLLVQKRFKYAPG [RPS3] | 2.83 ± 0.2 | 2.81 ± 0.14 | 2.75 ± 0.12 | 2.96 ± 0.13 |
| HMSTYLKIYKVGDIVDI [RPL21B] | 1.69 ± 0.036 | 1.64 ± 0.037 | 1.95 ± 0.052 | 1.95 ± 0.036 |
| DMPCDVLAKRMANLSQI [SCL1] | 1.71 ± 0.09 | 1.4 ± 0.064 | 1.6 ± 0.17 | 1.61 ± 0.076 |
| PESIDTILSSKLSNIWM [SRB2] | 2.72 ± 0.08 | 2.78 ± 0.095 | 2.92 ± 0.054 | 2.91 ± 0.042 |
| FDALRSLDDNSTSLEKQ [YJL041W/NSP1] | 2.99 ± 0.086 | 3.03 ± 0.11 | 3 ± 0.062 | 3.02 ± 0.066 |
| PAFTFGAQKDNEKKTEE [YJL041W/NSP1] | 3.35 ± 0.2 | 2.64 ± 0.28 | 3.11 ± 0.26 | 3.46 ± 0.2 |
| QEEFVQFLQLDNDGFSF [ECM29] | 1.9 ± 0.087 | 3.13 ± 0.12 | 1.93 ± 0.11 | 2.41 ± 0.11 |
| DRNNSTNQIFQSRRYNL [SIN4] | 2.78 ± 0.047 | 2.93 ± 0.049 | 2.71 ± 0.053 | 2.83 ± 0.039 |
| MVLYKRKPILLPDPKPL [ITC1] | 2.88 ± 0.067 | 2.85 ± 0.065 | 2.75 ± 0.067 | 2.66 ± 0.055 |
| EYIDAEEEESILIAMQP [RPB2] | 3.37 ± 0.076 | 3.41 ± 0.091 | 3.13 ± 0.067 | 3.46 ± 0.091 |
| HTVFTSVNKNKRQAYAV [RPL4A] |  | 1.17 ± 0.2 |  |  |
| LASAIASGLLRAYLSHS [CSN12] | 1.85 ± 0.045 | 1.5 ± 0.052 | 1.62 ± 0.071 | 1.4 ± 0.054 |
| ILDTSQSESRQKRQLHD [SNU114] | 3.23 ± 0.11 | 3.12 ± 0.084 | 1.72 ± 0.24 | 3.01 ± 0.048 |
| TLVAQNLKQANNVAYGK [SMC4] | 2.8 ± 0.1 | 2.92 ± 0.089 | 2.87 ± 0.062 | 3 ± 0.067 |
| GRIRTTREDVSPHYNSQ [SSN3] | 1.81 ± 0.067 | 2.02 ± 0.091 | 1.89 ± 0.07 | 1.73 ± 0.11 |
| KREESESAAVYNGRGAR [SNF2] | 3.09 ± 0.17 | 3.02 ± 0.091 | 3.35 ± 0.057 | 3.49 ± 0.085 |
| APLVLLSALDHYERTQT [RPN8] | 2.45 ± 0.051 | 2.45 ± 0.053 | 2.39 ± 0.057 | 2.42 ± 0.039 |
| LQFKSIREIDVAGGKKA [RPS7A] | 1.45 ± 0.14 | 1.49 ± 0.11 |  | 1.21 ± 0.077 |
| SVVKKEDNKYAIAGNST [RGR1] | 3.1 ± 0.084 | 2.63 ± 0.072 | 3.02 ± 0.054 | 2.92 ± 0.054 |
| HENYIQDDDFPLDDAGT [MCD1] | 2.95 ± 0.054 | 2.98 ± 0.051 | 2.99 ± 0.041 | 3 ± 0.046 |
| PSINLDPDNTSFSDENS [ESC2] | 2.83 ± 0.072 | 2.93 ± 0.054 | 2.58 ± 0.064 | 3.07 ± 0.029 |
| RSEEEVTKLNVLVDEIK [YIL149C/MLP2] | 3.42 ± 0.15 | 3.5 ± 0.11 | 3.24 ± 0.059 | 3.36 ± 0.082 |
| NEAGRKLSDIFLSKPSK [SNF2] | 2.94 ± 0.08 | 3.27 ± 0.087 | 3.21 ± 0.081 | 3.04 ± 0.093 |
| MSSQIIDRPKHELSRAE [SMD2] | 3.14 ± 0.093 | 3.46 ± 0.12 | 3.2 ± 0.11 | 3.25 ± 0.11 |
| AKNKSTRINGLNSNNSI [REC8] | 3.43 ± 0.14 | 3.15 ± 0.098 | 3.25 ± 0.061 | 3.27 ± 0.073 |
| GGAKSRGVRPYKHIDAS [RPS19A] | 3.12 ± 0.11 | 3.38 ± 0.14 | 2.93 ± 0.082 | 2.98 ± 0.12 |

| Sequence | protein stability index (doa10∆) | protein stability index (pdr5∆) | protein stability index (san1∆) | protein stability index (ubr1∆) |
| --- | --- | --- | --- | --- |
| PVRTIVPISTSQTNNSF [SIR4] | 2.04 ± 0.04 | 2.2 ± 0.047 | 2.22 ± 0.052 | 2.28 ± 0.034 |
| ATPSAKEASQEDDNNNV [YLR335W/NUP2] | 2.57 ± 0.058 | 2.62 ± 0.056 | 2.76 ± 0.051 | 2.73 ± 0.05 |
| LKQNAIRARIPFYGSYT [SRP54] | 2.82 ± 0.077 | 2.8 ± 0.063 | 2.5 ± 0.087 | 2.89 ± 0.062 |
| GNSFHLMRELLKMMKLI [PRP8] | 2.78 ± 0.051 | 2.41 ± 0.046 | 2.6 ± 0.065 | 2.43 ± 0.049 |
| NVSNTFNKTTNIDINNE [YJL041W/NSP1] | 3.1 ± 0.068 | 3.28 ± 0.065 | 2.68 ± 0.073 | 3.08 ± 0.051 |
| LYKFQNFQDLSYLSETL [YML103C/NUP188] | 2.94 ± 0.091 | 2.87 ± 0.08 | 2.64 ± 0.12 | 2.49 ± 0.11 |
| IDMGEDKENVPVEKVKE [DPB4] | 3.41 ± 0.23 | 3.45 ± 0.14 | 3.29 ± 0.21 | 3.67 ± 0.13 |
| HSNRCIVFSKKEPFPHS [CSN12] | 2.49 ± 0.043 | 2.85 ± 0.047 | 2.8 ± 0.058 | 2.69 ± 0.037 |
| LEMLKPCVEDGFVIQDR [RPB2] | 3.17 ± 0.086 | 3.29 ± 0.12 | 3.19 ± 0.19 | 3.23 ± 0.077 |
| EDPNSAAFDEVEYKLTF [DIS3] | 1.18 ± 0.12 | 1.6 ± 0.29 | 1.17 ± 0.25 |  |
| VRYTTSVMPPNEVYSAY [DLS1] | 2.83 ± 0.062 | 3.12 ± 0.069 | 2.48 ± 0.059 | 2.9 ± 0.061 |
| LKNTMQYLTNFSRFRDQ [RPB4] | 3.09 ± 0.12 | 2.97 ± 0.17 | 3.1 ± 0.087 | 3.19 ± 0.074 |
| ISLEALNFYITNVPKAK [SIR3] | 2.67 ± 0.065 | 2.82 ± 0.063 | 2.62 ± 0.053 | 2.87 ± 0.035 |
| TNDGIERYSDKYLKKRK [RPC31] | 3.23 ± 0.13 | 2.98 ± 0.18 | 3.43 ± 0.15 | 2.88 ± 0.091 |
| LVEVEDEKIEAIKKKEK [SRB7] | 2.57 ± 0.16 | 3.09 ± 0.16 | 3.05 ± 0.094 | 3.39 ± 0.17 |
| TIKDLVGGKSTVQNEIL [FAS2] | 3.03 ± 0.073 | 2.92 ± 0.1 | 2.21 ± 0.1 | 3.24 ± 0.11 |
| ANKEKRAIILERNAAYQ [RPL7A] | 1.2 ± 0.072 | 1.38 ± 0.081 | 1.14 ± 0.11 | 1.32 ± 0.2 |
| DRGIANIRNNIESQNLD [SRB4] | 3.12 ± 0.14 | 3.34 ± 0.12 | 2.98 ± 0.11 | 3.07 ± 0.067 |
| NTTKPAFGGLNFGGGNN [YJL041W/NSP1] | 2.71 ± 0.054 | 3.2 ± 0.061 | 3.01 ± 0.045 | 3.13 ± 0.068 |
| PNSSANNNPLQQQSSQN [GAL11] | 2.99 ± 0.051 | 3.03 ± 0.045 | 3.02 ± 0.033 | 2.98 ± 0.034 |
| NTFGSSSLFNNSTNSNT [YJL041W/NSP1] | 2.42 ± 0.06 | 2.44 ± 0.053 | 3.12 ± 0.041 | 2.5 ± 0.05 |
| DNYFNLQLNEAEEFVAG [SMX3] | 2.76 ± 0.16 | 2.8 ± 0.16 | 2.5 ± 0.1 | 3.12 ± 0.12 |
| MNVQDRRRLLGPAAAKP [MTR3] | 3.23 ± 0.11 | 3.1 ± 0.11 | 2.96 ± 0.085 | 2.97 ± 0.089 |
| LFKALKVILNERGGKFH [RGR1] | 2.44 ± 0.075 | 2.64 ± 0.068 | 2.17 ± 0.094 | 2.64 ± 0.059 |
| SASDALKGRVVEVCLAD [RPS1A] | 2.46 ± 0.06 | 2.82 ± 0.093 | 2.35 ± 0.081 | 2.43 ± 0.055 |
